Consider six molecules from patent US7285380B2, “Methods of producing polyketide synthase mutants and compositions and uses thereof” (The Salk Institute for Biological Studies, priority 2000, dated 2007).

One experiment concerns CHS. The following applies: cited from earlier work.
For experiment [1], the target named is 2-Pyrone synthase (2-PS) from Gerbera hybrida (Gerbera hybrida). In words: X-ray crystal structure, homodimer interface.
The nature of experiment [2]: Malonyl-CoA decarboxylation by C164S mutant (crystallographic and functional assay). In kind it is biochemical. The text has this:
Asn336 appears to play a crucial role in the decarboxylation reaction. […] In the hexanoyl-CoA complex, the side chain amide of Asn336 provides a hydrogen bond to the carbonyl oxygen of the thioester. This interaction would stabilize the enolate anion resulting from decarboxylation of malonyl-CoA (see FIG. 6). At the same time, the lack of formal positive charge at Asn336 may preserve the partial carbanion character of this resonance-stabilized anion, and thus the nucleophilicity of the carbanion form.

The nature of experiment [3]: 14C malonyl-CoA assay of CHS mutants, products analysed by TLC and autoradiography (naringenin vs resveratrol). It counts as biochemical. The following applies: TLC autoradiography. The text has this:
Wild type CHS produces chalcone, which spontaneously converts to naringenin, the position of which is indicated by the arrow on the left. Wild type STS produces resveratrol, the position of which is indicated by the arrow of the right. Function conversion of CHS to STS (i.e., the production of the alternate product from the same intermediate) results in diminished production of naringenin and increased production of resveratrol. Various mutants of CHS produce varying degrees of resveratrol, showing that CHS activity can be altered to STS-like activity to different extents by different mutations.
Mutant CHS (SEQ ID NO: 1) has altered activity based on assays conducted with ^14C malonyl-CoA. Products were extracted with ethyl acetate and analyzed by silica gel thin layer chromatography (TLC) and visualized by autoradiography.

The nature of experiment [4]: Activity and kinetics of 18xCHS / 8xCHS compared with wild type CHS and STS. The following applies: listed as 8×CHS. In kind it is biochemical.

Where a chain is given by its changes, count along the chain named. Names and notes keep the numbering of the source. “Also recorded” adds a separate entry of the source.

For the molecule `C/C=C/C/C=C/CCC(=O)[C@H]1O[C@H]1C(N)=O` [Cerulenin], the “inhibition of CHS” value with CHS was “potent irreversible inhibitor of CHS”. Further, the “inactivation of CHS after preincubation with substrate” value in the experiment with CHS (preincubation with coumaroyl-CoA or malonyl-CoA) is on record as “Preincubation of CHS with coumaroyl-CoA prevents inactivation by cerulenin, but pre-incubation with malonyl-CoA does not”.
For the molecule “2-Pyrone synthase (2-PS) from Gerbera hybrida (enzyme)”, the surface area buried per monomer by the dimerization surface in experiment [1] amounted to 1800 Å^2.

B1: C164S: alfalfa CHS C164S mutant (protein, listed as Medicago sativa)
chain: MVSVSEIRKAQRAEGPATILAIGTANPANCVEQSTYPDFYFKITNSEHKTELKEKFQRMCDKSMIKRRYMYLTEEILKENPNVCEYMAPSLDARQDMVVVEVPRLGKEAAVKAIKEWGQPKSKITHLIVCTTSGVDMPGADYQLTKLLGLRPYVKRYMMYQQGSFAGGTVLRLAKDLAENNKGARVLVVCSEVTAVTFRGPSDTHLDSLVGQALFGDGAAALIVGSDPVPEIEKPIFEMVWTAQTIAPDSEGAIDGHLREAGLTFHLLKDVPGIVSKNITKALVEAFEPLGISDYNSIFWIAHPGGPAILDQVEQKLALKPEKMNATREVLSEYGNMSSACVLFILDEMRKKSTQNGLKTTGEGLEWGVLFGFGPGLTIETVVLRSVAI
Turning to B1, the “catalytic / decarboxylation activity on malonyl-CoA” value in experiment [2] is “retains decarboxylation activity; also recorded: retains limited catalytic activity; also recorded: produces acetyl-CoA”.

B2: 16B: alfalfa CHS mutant: V98L, T131S, S133T, G134T, V135P, M137L, M158G, Y160F (protein, UniProt P30074 1-389, looked up, variant V98L T131S S133T G134T V135P M137L M158G Y160F)
Chalcone synthase 2: B1 chain with V98L, T131S, S133T, G134T, V135P, M137L, M158G, Y160F, S164C
Turning to B2, in experiment [3], the naringenin amount entry is listed as “reduced amounts of naringenin compared to wild type CHS” and the resveratrol amount entry is “various amounts of resveratrol”. Also, the “activity and kinetics compared with STS” value in experiment [4] is listed as “activity that is similar to the 18×CHS mutant”.

B3: A4: alfalfa CHS mutant: A4 (L268K, K269G, D270A, G273D) (protein, UniProt P30074 1-389, looked up, variant L268K K269G D270A G273D)
Chalcone synthase 2: B1 chain with S164C, L268K, K269G, D270A, G273D
In the case of B3, in experiment [3], the “product profile (naringenin or chalcone versus resveratrol), cyclization specificity” value is on record as “no effect on cyclization specificity”.

B4: 4B: alfalfa CHS mutant: A1 (four), A2 (five), A3 (M158G, Y160F), A4 (K269G) (protein, UniProt P30074 1-389, looked up, variant D96A V98L V99A V100M T131S S133T G134T V135P M137L M158G Y160F K269G)
Chalcone synthase 2: MVSVSEIRKAQRAEGPATILAIGTANPANCVEQSTYPDFYFKITNSEHKTELKEKFQRMCDKSMIKRRYMYLTEEILKENPNVCEYMAPSLDARQAMLAMEVPRLGKEAAVKAIKEWGQPKSKITHLIVCSTTTPDLPGADYQLTKLLGLRPYVKRYGMFQQGCFAGGTVLRLAKDLAENNKGARVLVVCSEVTAVTFRGPSDTHLDSLVGQALFGDGAAALIVGSDPVPEIEKPIFEMVWTAQTIAPDSEGAIDGHLREAGLTFHLLGDVPGIVSKNITKALVEAFEPLGISDYNSIFWIAHPGGPAILDQVEQKLALKPEKMNATREVLSEYGNMSSACVLFILDEMRKKSTQNGLKTTGEGLEWGVLFGFGPGLTIETVVLRSVAI
For B4, in experiment [3], the naringenin amount entry was “reduced amounts of naringenin compared to wild type CHS” and the resveratrol amount entry is recorded as “various amounts of resveratrol”.
